Data from patent US20090228996A1, “Means and Methods for influencing Interactions Between Dc-Sign and Dc-Sign Ligands” (priority 2006, published 2009).

B1: human lactoferrin: major human milk protein (Sigma-Aldrich) (protein, UniProt P02788 20-710, looked up)
Lactotransferrin: GRRRSVQWCAVSQPEATKCFQWQRNMRKVRGPPVSCIKRDSPIQCIQAIAENRADAVTLDGGFIYEAGLAPYKLRPVAAEVYGTERQPRTHYYAVAVVKKGGSFQLNELQGLKSCHTGLRRTAGWNVPIGTLRPFLNWTGPPEPIEAAVARFFSASCVPGADKGQFPNLCRLCAGTGENKCAFSSQEPYFSYSGAFKCLRDGAGDVAFIRESTVFEDLSDEAERDEYELLCPDNTRKPVDKFKDCHLARVPSHAVVARSVNGKEDAIWNLLRQAQEKFGKDKSPKFQLFGSPSGQKDLLFKDSAIGFSRVPPRIDSGLYLGSGYFTAIQNLRKSEEEVAARRARVVWCAVGEQELRKCNQWSGLSEGSVTCSSASTTEDCIALVLKGEADAMSLDGGYVYTAGKCGLVPVLAENYKSQQSSDPDPNCVDRPVEGYLAVAVVRRSDTSLTWNSVKGKKSCHTAVDRTAGWNIPMGLLFNQTGSCKFDEYFSQSCAPGSDPRSNLCALCIGDEQGENKCVPNSNERYYGYTGAFRCLAENAGDVAFVKDVTVLQNTDGNNNEAWAKDLKLADFALLCLDGKRKPVTEARSCHLAMAPNHAVVSRMDKVERLKQVLLHQQAKFGRNGSDCPDKFCLFQSETKNLLFNDNTECLARLHGKTTYEKYLGPQYVAGITNLKKCSTSPLLEACEFLRK
B2: bovine β-casein: milk protein (NIZO Food Research) (protein, UniProt P02666 16-224, looked up)
Beta-casein: RELEELNVPGEIVESLSSSEESITRINKKIEKFQSEEQQQTEDELQDKIHPFAQTQSLVYPFPGPIPNSLPQNIPPLTQTPVVVPPFLQPEVMGVSKVKEAMAPKHKEMPFPKYPVEPFTESQSLTLTDVENLHLPLPLLQSWMHQPHQPLPPTVMFPPQSVLSLSQSKVLPVPQKAVPYPQRDMPIQAFLLYQEPVLGPVRGPFPIIV
B3: human α-lactalbumin: major human milk protein (Sigma) (protein, UniProt P00709 20-142, looked up)
Alpha-lactalbumin: KQFTKCELSQLLKDIDGYGGIALPELICTMFHTSGYDTQAIVENNESTEYGLFQISNKLWCKSSQVPQSRNICDISCDKFLDDDITDDIMCAKKILDIKGIDYWLAHKALCTEKLEQWLCEKL
B4: human SLPI: human milk protein SLPI (Sigma) (protein, UniProt P03973 26-132, looked up)
Antileukoproteinase: SGKSFKAGVCPPKKSAQCLRYKKPECQSDWQCPGKKRCCPDTCGIKCLDPVDTPNPTRRKPGKCPVTYGQCLMLNPPNFCEMDGQCKRDLKCCMGMCGKSCVSPVKA
B5: bovine lactoferrin: control protein previously shown to bind DC-SIGN (protein, UniProt P24627 20-708, looked up)
Lactotransferrin: APRKNVRWCTISQPEWFKCRRWQWRMKKLGAPSITCVRRAFALECIRAIAEKKADAVTLDGGMVFEAGRDPYKLRPVAAEIYGTKESPQTHYYAVAVVKKGSNFQLDQLQGRKSCHTGLGRSAGWIIPMGILRPYLSWTESLEPLQGAVAKFFSASCVPCIDRQAYPNLCQLCKGEGENQCACSSREPYFGYSGAFKCLQDGAGDVAFVKETTVFENLPEKADRDQYELLCLNNSRAPVDAFKECHLAQVPSHAVVARSVDGKEDLIWKLLSKAQEKFGKNKSRSFQLFGSPPGQRDLLFKDSALGFLRIPSKVDSALYLGSRYLTTLKNLRETAEEVKARYTRVVWCAVGPEEQKKCQQWSQQSGQNVTCATASTTDDCIVLVLKGEADALNLDGGYIYTAGKCGLVPVLAENRKSSKHSSLDCVLRPTEGYLAVAVVKKANEGLTWNSLKDKKSCHTAVDRTAGWNIPMGLIVNQTGSCAFDEFFSQSCAPGADPKSRLCALCAGDDQGLDKCVPNSKEKYYGYTGAFRCLAEDVGDVAFVKNDTVWENTNGESTADWAKNLNREDFRLLCLDGTRKPVTEAQSCHLAVAPNHAVVSRSDRAAHVKQVLLHQQALFGKNGKNCPDKFCLFKSETKNLLFNDNTECLAKLGGRPTYEEYLGTEYVTAIANLKKCSTSPLLEACAFLTR

Columns and labels:
[1] = target: T1, DC-SIGN on Raji-DC-SIGN cells (Homo sapiens, UniProt Q9NNX6); assay: gp120 bead adhesion assay, Raji-DC-SIGN cells; type: cell-based; settings: major milk proteins at 1/20 dilution of physiological concentration in human milk
T1 construct: expressed in transfected cells; host or cells: Raji cells (Raji-DC-SIGN)
T1 sequence (Q9NNX6 1-404): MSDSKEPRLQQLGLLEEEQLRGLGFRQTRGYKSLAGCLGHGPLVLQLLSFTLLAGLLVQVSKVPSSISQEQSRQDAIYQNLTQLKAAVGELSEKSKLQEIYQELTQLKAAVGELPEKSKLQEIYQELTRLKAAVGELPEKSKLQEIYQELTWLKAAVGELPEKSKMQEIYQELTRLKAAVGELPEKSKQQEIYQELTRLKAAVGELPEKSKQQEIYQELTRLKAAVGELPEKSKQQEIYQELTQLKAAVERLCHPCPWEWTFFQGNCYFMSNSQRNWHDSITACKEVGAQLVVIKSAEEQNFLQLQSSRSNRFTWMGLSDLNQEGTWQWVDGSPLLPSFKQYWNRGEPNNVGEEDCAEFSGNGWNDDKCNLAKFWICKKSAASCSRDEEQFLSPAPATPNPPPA
Method: (§1) gp120 bead adhesion assay. Beads were prepared as previously described (Geijtenbeek et al, 2000 a), in short, streptavidin was covalently coupled to Carboxylate-modified TransFluoSpheres (488/645 nm, 1.0 μm; molecular probes). The steptavidin-beads were incubated with biotinylated F(ab′)2 fragment goat-anti-human IgG (6 μg/ml; Jackson Immunoresearch) and subsequently incubated overnight with gp120-Fc chimera. Fifty thousand cells, Raji-DC-SIGN cells, immature DCs or Raji-L-SIGN cells, were pre-incubated with human milk or milk compounds, AZN-D1 (Geijtenbeek et al, 2000 a), AZN-D2 (Halary et al, 2002), EGTA or mannan for 30 minutes at RT. The ligand-coated beads (20 beads/cell) were added to the pre-incubated cells and incubated for 30 minutes at 37° C. after which the cells were washed with TSM containing 0.5% BSA. After washing, the cells were resuspended in 100 μl TSM-BSA buffer and the adhesion was measured by flow cytometry (BD Biosciences).
(§2) gp120 bead adhesion assay. Beads were prepared as previously described (Geijtenbeek et al, 2000 a), in short, streptavidin was covalently coupled to Carboxylate-modified TransFluoSpheres (488/645 nm, 1.0 μm; molecular probes). The steptavidin-beads were incubated with biotinylated F(ab′)2 fragment goat-anti-human IgG (6 μg/ml; Jackson Immunoresearch) and subsequently incubated overnight with the gp120-Fc chimera. Fifty thousand cells, Raji-DC-SIGN cells or iDCs were pre-incubated with human milk, AZN-D1 (Geijtenbeek et al, 2000 a), AZN-D2 (Halary et al, 2002), EGTA or mannan for 30 minutes at RT. The ligand-coated beads (20 beads/cell) were added to the pre-incubated cells and incubated for 30 minutes at 37° C. after which the cells were washed with TSM (20 mM Tris, 150 mM NaCl, 1 mM CaCl2, 2 mM MgCl2) containing 0.5% BSA. After washing, the cells were resuspended in 100 μl TSM-BSA buffer and the adhesion was measured by flow cytometry (BD Biosciences).

[2] = target: T2, DC-SIGN-Fc (Homo sapiens, UniProt Q9NNX6); assay: DC-SIGN-Fc binding ELISA; settings: major milk proteins at 1/20 dilution of physiological concentration in human milk
T2 construct: the extracellular portion of DC-SIGN (amino acids 64 to 404)
T2 sequence (Q9NNX6 64-404): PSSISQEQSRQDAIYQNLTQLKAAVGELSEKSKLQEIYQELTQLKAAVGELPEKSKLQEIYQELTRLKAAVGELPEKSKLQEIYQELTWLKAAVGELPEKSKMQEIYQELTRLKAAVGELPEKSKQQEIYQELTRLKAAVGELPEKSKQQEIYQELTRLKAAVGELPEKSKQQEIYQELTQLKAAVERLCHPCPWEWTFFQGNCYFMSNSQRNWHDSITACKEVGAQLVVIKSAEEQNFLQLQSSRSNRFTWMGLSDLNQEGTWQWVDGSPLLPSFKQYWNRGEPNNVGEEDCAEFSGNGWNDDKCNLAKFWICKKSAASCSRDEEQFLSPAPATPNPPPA
Method: DC-SIGN-Fc binding ELISA. The DC-SIGN-Fc chimera contained the extracellular portion of DC-SIGN (amino acids 64 to 404) fused at the C-terminus to a human immunoglobulin (Ig) G1 Fc fragment and has been previously described (Geijtenbeek et al, 2002). Human milk or human milk compounds were diluted in 0.2M NaHCO3, coated on ELISA plates (maxisorb plate; Nunc) and incubated overnight at 4° C. or 2 hours at 37° C. This was followed by blocking with TSM containing 1% BSA for 30 minutes at 37° C. before addition of soluble DC-SIGN-Fc (5 μg/ml) for 2 hours at RT, the binding was determined by incubation of a peroxidase labeled anti-IgG1 antibody for 30 minutes at RT. DC-SIGN-Fc binding specificity was determined by pre-incubation of the DC-SIGN-FC with either 50 μg/ml DC-SIGN specific mouse antibody AZN-D1 (Geijtenbeek et al, 2000 a) or 10 mM EGTA. Single-cycle-replication transmission assay. The assay was performed as previously described (Groot et al, 2005). In short mDCs and iDCs were incubated in a 96-well-plate (35−50×10^3 DC/well) with human milk for 30 minutes at 37° C. before addition of the virus (5 ng p24/well), which was incubated for 2 hours at 37° C. The DCs were washed twice with PBS before addition of 50×10^3 LuSIV cells. After 24 hours, LuSIV cells were harvested and resuspended in 50 μl lysis buffer (25 mM Tris-Cl 7.8, 2 mM DTT, 2 mM CDTA, 10% glycerol, 1% Triton X100). The cells were then incubated for 45 minutes at room temperature while shaking, followed by 10 minutes centrifugation at 3200×g. The supernatant was transferred to a white-solid 96 well plate (Corning Costar), and 150 μl of lucibuffer (100 μg/ml BSA, 6.6 mM ATP, 15 mM MgSO4, 25 mM glycylglycine) was added. 100 μl of DE(−)Luciferin (Roche Diagnostics GmbH) was injected per well (0.28 mg/ml lucibuffer excluding ATP). 50×10^3 LuSIV cells grown without DC or HIV-1 were used to obtain the background luciferase value.
DC-SIGN-Fc binding ELISA. The DC-SIGN-Fc chimera contained the extracellular portion of DC-SIGN (amino acids 64 to 404) fused at the C-terminus to a human immunoglobulin (Ig) G1 Fc fragment which has been previously described (Geijtenbeek et al, 2002). Human milk or BSSL were diluted in 0.2 M NaHCO3, coated on ELISA plates (maxisorb plate; Nunc) and incubated overnight at 4° C. or 2 hours at 37° C. This was followed by blocking with TSM containing 1% BSA for 30 minutes at 37° C. before addition of soluble DC-SIGN-Fc (5 μg/ml) for 2 hours at RT, the binding was determined by incubation of a peroxidase labeled anti-IgG1 antibody for 30 minutes at RT. DC-SIGN-Fc binding specificity was determined by pre-incubation of the DC-SIGN-Fc with either 50 μg/ml DC-SIGN specific mouse antibody AZN-D1 (Geijtenbeek et al, 2000 a) or 10 mM EGTA.

[3] = target: T3, DC-SIGN on iDCs (Homo sapiens, UniProt Q9NNX6); assay: gp120 bead adhesion assay, immature DCs; type: cell-based; settings: major milk proteins at 1/20 dilution of physiological concentration in human milk
T3 construct: endogenous in cells
T3 sequence (Q9NNX6 1-404): T1 sequence (Q9NNX6 1-404)
Method: as §1, §2

[4] = target: T4, DC-SIGN (Homo sapiens, UniProt Q9NNX6); settings: literature; cited from earlier work
T4 sequence (Q9NNX6 1-404): T1 sequence (Q9NNX6 1-404)

Row | Molecule | gp120 binding to Raji-DC-SIGN [1] | DC-SIGN-Fc binding to coated milk compound [2] | gp120 binding to iDCs [3] | previously shown DC-SIGN binding [4]
1 | B1 | None of the tested human milk compounds could inhibit gp120 binding | showed no binding | None of the tested human milk compounds could inhibit gp120 binding | 
2 | B2 | None of the tested human milk compounds could inhibit gp120 binding | showed no binding | None of the tested human milk compounds could inhibit gp120 binding | 
3 | B3 | None of the tested human milk compounds could inhibit gp120 binding | showed no binding | None of the tested human milk compounds could inhibit gp120 binding | 
4 | B4 | None of the tested human milk compounds could inhibit gp120 binding | showed no binding | None of the tested human milk compounds could inhibit gp120 binding | 
5 | B5 |  |  |  | bind DC-SIGN and prevent viral transfer
